These results are taken from paper PMC6962361.

This series addresses Fpr C151Stop (Fowlpox virus) (UniProt A0A385H9X4). The series can be described thus: fluorescence polarization. The settings on record: FP: 25 mM Tris-HCl pH 7.4, 100 mM NaCl, 5 mM EDTA, 1% glycerol, 10 nM DNA, 37 C 20 min, protein as dimer; NMR: 25 mM L-Arg, 25 mM L-Glu, 303 K.

As a reminder, the Kd is the equilibrium constant for the complex coming apart. Turning to “CGGAGGCCTAGCGTCCGGAATTCTCGTTTCGAGAATTCCGGATTAGGGATCCGCG / CGCGGATCCCTAAGCTCCATCGATCGTTTCGATCGATGGAGCCGCTAGGCCTCCG [F13/13HJ (FHJ13/13)]”, the Kd amounted to 168 nM.
